# Assay results from patent US20210340207A1 (Merck Sharp & Dohme, published 2021).
# Where a chain is given by its changes, count along the chain named. Names and notes keep the numbering of the source.
# T1: Human IL-2Rβ (Table 7B) (human, UniProt P14784 27-239, limits assumed)
# T1 sequence (looked up): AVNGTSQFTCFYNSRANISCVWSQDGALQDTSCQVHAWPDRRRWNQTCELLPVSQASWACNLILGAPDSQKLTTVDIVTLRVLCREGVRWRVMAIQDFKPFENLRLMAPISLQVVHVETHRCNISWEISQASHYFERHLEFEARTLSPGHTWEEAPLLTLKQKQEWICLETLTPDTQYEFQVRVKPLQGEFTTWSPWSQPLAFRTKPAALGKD
# T2: mouse IL-2Rαβγc (on CTLL2-STAT5 reporter cells) (mouse, UniProt P01590 22-268; P16297 27-539; P34902 23-369)
# T2 sequence (looked up) 1: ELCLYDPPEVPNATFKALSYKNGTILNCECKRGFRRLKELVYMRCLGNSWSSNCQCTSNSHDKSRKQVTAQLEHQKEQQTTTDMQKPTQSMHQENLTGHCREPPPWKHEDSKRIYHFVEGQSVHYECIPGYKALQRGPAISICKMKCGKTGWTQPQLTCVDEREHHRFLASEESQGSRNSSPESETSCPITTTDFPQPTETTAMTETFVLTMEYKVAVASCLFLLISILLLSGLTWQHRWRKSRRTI
# T2 sequence (looked up) 2: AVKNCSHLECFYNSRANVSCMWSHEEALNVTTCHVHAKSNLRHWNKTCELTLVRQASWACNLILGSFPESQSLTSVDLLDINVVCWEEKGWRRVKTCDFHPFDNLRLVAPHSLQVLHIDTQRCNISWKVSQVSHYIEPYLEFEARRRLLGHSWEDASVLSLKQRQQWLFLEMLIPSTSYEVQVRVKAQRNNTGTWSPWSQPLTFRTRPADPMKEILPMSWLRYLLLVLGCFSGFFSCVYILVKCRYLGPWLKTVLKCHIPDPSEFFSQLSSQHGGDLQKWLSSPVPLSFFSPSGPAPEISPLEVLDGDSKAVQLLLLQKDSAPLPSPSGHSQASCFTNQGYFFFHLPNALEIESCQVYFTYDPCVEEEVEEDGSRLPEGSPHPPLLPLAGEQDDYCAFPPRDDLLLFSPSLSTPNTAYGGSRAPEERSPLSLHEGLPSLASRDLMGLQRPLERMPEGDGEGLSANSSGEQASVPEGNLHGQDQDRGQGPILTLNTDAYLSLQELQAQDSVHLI
# T2 sequence (looked up) 3: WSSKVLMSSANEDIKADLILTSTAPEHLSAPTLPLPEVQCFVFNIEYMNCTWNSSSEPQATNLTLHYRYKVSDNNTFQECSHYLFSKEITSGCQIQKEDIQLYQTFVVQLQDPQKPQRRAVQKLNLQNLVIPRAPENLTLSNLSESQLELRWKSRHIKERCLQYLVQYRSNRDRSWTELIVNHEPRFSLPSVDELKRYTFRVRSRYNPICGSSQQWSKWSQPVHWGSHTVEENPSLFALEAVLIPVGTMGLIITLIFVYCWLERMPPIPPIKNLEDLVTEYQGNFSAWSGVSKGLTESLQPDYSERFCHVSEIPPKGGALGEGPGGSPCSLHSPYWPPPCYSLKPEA
# T3: human IL-2Rαβγc (on Kit225-STAT5 reporter cells, NK-92 cells, primary Treg cells) (human, UniProt P01589 22-272; P14784 27-551; P31785 23-369)
# T3 sequence (looked up) 1: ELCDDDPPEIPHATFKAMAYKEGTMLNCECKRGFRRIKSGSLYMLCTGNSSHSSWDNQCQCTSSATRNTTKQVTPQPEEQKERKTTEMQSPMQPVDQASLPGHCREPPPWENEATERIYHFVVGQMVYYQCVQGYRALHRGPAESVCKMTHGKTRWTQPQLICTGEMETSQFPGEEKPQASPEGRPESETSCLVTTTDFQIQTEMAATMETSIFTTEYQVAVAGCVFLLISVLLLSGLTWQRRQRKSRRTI
# T3 sequence (looked up) 2: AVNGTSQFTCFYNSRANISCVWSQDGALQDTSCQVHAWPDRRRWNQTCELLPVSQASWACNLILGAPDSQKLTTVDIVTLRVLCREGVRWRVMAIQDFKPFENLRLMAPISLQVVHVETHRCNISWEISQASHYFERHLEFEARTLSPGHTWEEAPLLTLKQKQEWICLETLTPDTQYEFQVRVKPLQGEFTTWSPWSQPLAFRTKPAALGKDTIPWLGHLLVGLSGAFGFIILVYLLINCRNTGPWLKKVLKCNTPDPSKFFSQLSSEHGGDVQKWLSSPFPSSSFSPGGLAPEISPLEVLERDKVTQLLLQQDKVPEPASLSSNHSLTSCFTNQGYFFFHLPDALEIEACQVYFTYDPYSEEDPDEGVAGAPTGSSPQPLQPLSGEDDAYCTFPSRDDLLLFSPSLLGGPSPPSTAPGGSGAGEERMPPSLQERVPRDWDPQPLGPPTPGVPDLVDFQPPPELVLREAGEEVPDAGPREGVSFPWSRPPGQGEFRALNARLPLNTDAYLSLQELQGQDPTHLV
# T3 sequence (looked up) 3: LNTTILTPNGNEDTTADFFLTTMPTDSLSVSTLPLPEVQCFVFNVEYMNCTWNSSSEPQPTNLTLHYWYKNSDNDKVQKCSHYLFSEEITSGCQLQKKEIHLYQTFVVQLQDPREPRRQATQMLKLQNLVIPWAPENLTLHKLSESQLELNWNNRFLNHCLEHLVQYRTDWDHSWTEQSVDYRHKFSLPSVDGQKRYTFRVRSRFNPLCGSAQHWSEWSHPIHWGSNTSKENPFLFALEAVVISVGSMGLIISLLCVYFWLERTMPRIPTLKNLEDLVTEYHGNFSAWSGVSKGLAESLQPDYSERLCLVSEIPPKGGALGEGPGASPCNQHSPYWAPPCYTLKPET
# T4: human IL-2Rβγc (on DERL-7 cells, U2OS IL2RB/IL2RG cells, CD25 knockout Kit225-STAT5 cells, primary CD8+ CTLs) (human, UniProt P14784 27-551; P31785 23-369)
# T4 sequence (looked up) 1: T3 sequence (looked up) 2
# T4 sequence (looked up) 2: T3 sequence (looked up) 3
# B1: Ald-6HIS_F41K/E60T (ligand)
# chain: PTSSSTKKTQLQLEHLLLDLQMILNGINNYKNPKLTRMLTKKFYMPKKATELKHLQCLETELKPLEEVLNLAQSKNFHLRPRDLISNINVIVLELKGSETTFMCEYADETATIVEFLNRWITFSQSIISTLTGGSHHHHHH
# B2: Ald-6HIS_R37A/T40D/E60T (ligand)
# chain: B1 chain with R37A, T40D, K41F
# B3: Ald-6HIS_R37A/T40D/F41K (ligand)
# chain: B1 chain with R37A, T40D, T60E
# B4: Ald-6HIS_R37A/F41K/E60T (ligand)
# chain: B1 chain with R37A
# B5: Ald-6HIS_R37A/T40D (ligand)
# chain: B1 chain with R37A, T40D, K41F, T60E
# B6: Ald-6HIS_R37A/F41K (ligand)
# chain: B1 chain with R37A, T60E
# B7: Ald_F41/Y44A/l71G* (ligand)
# chain: B1 chain with K41A, Y44A, T60E, L71G
# B8: Ald-6HIS_R37A/E60T (ligand)
# chain: B1 chain with R37A, K41F
# B9: Ald-6HIS_T40D/E60T (ligand)
# chain: B1 chain with T40D, K41F
# Molecular target: T1, Human IL-2Rβ (Table 7B)
# Assay: SPR (Biacore T200)
Binder,Kd,koff,kon
B1,1100 nM,0.47 s⁻¹,440000 M⁻¹ s⁻¹
B2,1900 nM,0.42 s⁻¹,220000 M⁻¹ s⁻¹
B3,590 nM,0.24 s⁻¹,410000 M⁻¹ s⁻¹
B4,860 nM,0.013 s⁻¹,–
B5,730 nM,0.25 s⁻¹,340000 M⁻¹ s⁻¹
B6,1000 nM,0.3 s⁻¹,300000 M⁻¹ s⁻¹
B7,770 nM,0.3 s⁻¹,390000 M⁻¹ s⁻¹
B8,1100 nM,0.082 s⁻¹,75000 M⁻¹ s⁻¹
B9,990 nM,0.36 s⁻¹,360000 M⁻¹ s⁻¹

# Molecular target: T2, mouse IL-2Rαβγc (on CTLL2-STAT5 …)
# Assay: cell-based or functional assay
Binder,STAT5-CTLL2 EC50,STAT5-CTLL2 EC50 Fold Change
B1,103 nM,11400 fold
B2,6.22 nM,689 fold
B3,12.7 nM,1400 fold
B4,95.2 nM,10500 fold
B5,0.101 nM,11.2 fold
B6,11 nM,1220 fold
B8,0.129 nM,14.3 fold
B9,2.2 nM,244 fold

# Molecular target: T3, human IL-2Rαβγc (on Kit225-STAT5 …)
# Assay: cell-based or functional assay
Binder,NK-92 EC50 Fold Change,NK-92 cell assay EC50
B1,11.4 fold,0.079 nM
B2,11 fold,0.076 nM
B3,3.73 fold,0.026 nM
B4,9.03 fold,0.063 nM
B5,2.06 fold,0.014 nM
B6,7.31 fold,0.051 nM
B8,4.46 fold,0.031 nM
B9,4.61 fold,0.032 nM

# Molecular target: T4, human IL-2Rβγc (on DERL-7 cells, U2OS …)
# Assay: cell-based or functional assay
Binder,U2OS B/BG EC50 Fold Change,U2OS B/BG bridging cell assay EC50
B1,3.15 fold,0.502 nM
B2,2.53 fold,0.403 nM
B3,1.16 fold,0.185 nM
B4,2.04 fold,0.325 nM
B5,2.83 fold,0.451 nM
B6,2.32 fold,0.37 nM
B8,3.28 fold,0.522 nM
B9,3.09 fold,0.492 nM

# Molecular target: T4, human IL-2Rβγc (on DERL-7 cells, U2OS …)
# Assay: cell-based or functional assay
# Remark: another data set of the same source
Binder,DERL7 EC50 Fold Change,DERL7 cell assay EC50
B1,2.01 fold,0.036 nM
B2,2.41 fold,0.043 nM
B3,0.71 fold,0.013 nM
B4,1.46 fold,0.026 nM
B5,1.31 fold,0.023 nM
B6,1.18 fold,0.021 nM
B8,2.14 fold,0.038 nM
B9,1.55 fold,0.028 nM
